Data taken from US20230055711A1 (BIOSION, published 2023).
Where a chain is given by its changes, count along the chain named.

B1: huB1H2-V10 (antibody, human IgG1, kappa, V domains shown)
VH: QVQLVQSGAEVKKPGASVKVSCKASGYTLTNYVMHWVRQAPGQGLEWIGFIIPFNDGTKYNEHFKGRVTITSDTSISTAYMQLSSLRSEDTAVYYCARYDFEGYFDVWGQGTLVTVSS
VL: DIQMTQSPSSLSASVGDRVTITCSASQDITNFLNWYQQKPGKAPKLLIYSTSRLHSGVPSRFSGSGSGTDFTLTISSLQPEDIATYYCQQYSNLPWTFGQGTKVEIKR
notes: Humanized IgG1/kappa; cell supernatant in the Octet assay, purified antibody in Biacore, ELISA and FACS
B2: huB1H2-V33 (antibody, human IgG1, kappa, V domains shown)
VH: B1 VH
VL: B1 VL with L73F
notes: as for B1
B3: chimeric B1H2 antibody (antibody, human IgG1, kappa, V domains shown)
VH: EVQLQQSGPELVKPGASVKMSCKASGYTLTNYVMHWMKQKPGQGLEWIGFIIPFNDGTKYNEHFKGKATLTSDKSSNTAYMVLSSLTSEDSAVYYCARYDFEGYFDVWGAGTTVTVSS
VL: DIQMTQTTSSLSASLGDRVTISCSASQDITNFLNWYQQKPDGTVKLLIYSTSRLHSGVPSRFSGSGSGTDYSLTISNLEPEDIATYYCQQYSNLPWTFGGGTNLEIKR
notes: Mouse variable domains fused to human IgG1 / kappa constant regions, made in 293F cells
B4: huB1H2-V15 (antibody, human IgG1, kappa, V domains shown)
VH: B1 VH with V37M, S72R
VL: B1 VL with P44V
B5: huB1H2-V5 (antibody, human IgG1, kappa, V domains shown)
VH: B1 VH with S72R, T74K
VL: B1 VL with A43T, P44V, F71Y, L73F
B6: huB1H2-V14 (antibody, human IgG1, kappa, V domains shown)
VH: B1 VH with S72R
VL: B1 VL with P44V
B7: huB1H2-V1 (antibody, human IgG1, kappa, V domains shown)
VH: B1 VH with Q1E, A16S, V37M, V68A, I70L, T74K, I76T, S77N, Q82E, Q110A
VL: B1 VL with A43T, P44V, F71Y, L73F
B8: huB1H2-V2 (antibody, human IgG1, kappa, V domains shown)
VH: B1 VH with S72R
VL: B1 VL with A43T, P44V, F71Y, L73F
B9: huB1H2-V22 (antibody, human IgG1, kappa, V domains shown)
VH: B1 VH
VL: B1 VL with F71Y
B10: huB1H2-V23 (antibody, human IgG1, kappa, V domains shown)
VH: B1 VH with S72R, T74K
VL: B1 VL with F71Y
B11: huB1H2-V24 (antibody, human IgG1, kappa, V domains shown)
VH: B1 VH with T74K
VL: B1 VL with F71Y
B12: huB1H2-V6 (antibody, human IgG1, kappa, V domains shown)
VH: B1 VH with T74K
VL: B1 VL with A43T, P44V, F71Y, L73F
B13: huB1H2-V16 (antibody, human IgG1, kappa, V domains shown)
VH: B1 VH
VL: B1 VL with P44V
B14: huB1H2-V4 (antibody, human IgG1, kappa, V domains shown)
VH: B1 VH
VL: B1 VL with A43T, P44V, F71Y, L73F
B15: huB1H2-V17 (antibody, human IgG1, kappa, V domains shown)
VH: B1 VH with S72R, T74K
VL: B1 VL with P44V
B16: huB1H2-V21 (antibody, human IgG1, kappa, V domains shown)
VH: B1 VH with V37M, S72R
VL: B1 VL with F71Y
B17: huB1H2-V18 (antibody, human IgG1, kappa, V domains shown)
VH: B1 VH with T74K
VL: B1 VL with P44V
B18: huB1H2-V19 (antibody, human IgG1, kappa, V domains shown)
VH: B1 VH with Q1E, A16S, V37M, V68A, I70L, T74K, I76T, S77N, Q82E, Q110A
VL: B1 VL with F71Y
B19: huB1H2-V20 (antibody, human IgG1, kappa, V domains shown)
VH: B1 VH with S72R
VL: B1 VL with F71Y
B20: huB1H2-V13 (antibody, human IgG1, kappa, V domains shown)
VH: B1 VH with Q1E, A16S, V37M, V68A, I70L, T74K, I76T, S77N, Q82E, Q110A
VL: B1 VL with P44V
B21: huB1H2-V3 (antibody, human IgG1, kappa, V domains shown)
VH: B1 VH with V37M, S72R
VL: B1 VL with A43T, P44V, F71Y, L73F
B22: BCMA BM1, full-length antibody containing the BCMA-binding portion of GSK2857916 (antibody, human IgG1, kappa, V domains shown)
VH: QVQLVQSGAEVKKPGSSVKVSCKASGGTFSNYWMHWVRQAPGQGLEWMGATYRGHSDTYYNQKFKGRVTITADKSTSTAYMELSSLRSEDTAVYYCARGAIYDGYDVLDNWGQGTLVTVSS
VL: B1 VL with T30S, F32Y, S50Y, R53N, I83F, S92R, N93K, V104L
notes: Prepared in house from the full heavy and light chains; also called benchmark; positive control

Target: recombinant human BCMA-his protein (Acro biosystems, Cat #BCA-H522Y) (human) (UniProt Q02223)
Assay: SPR Biacore, antibody captured by anti-human IgG on CM5, BCMA-his flowed

Q: Which Kd does the source give for B1 here?
A: Its Kd is 0.289 nM.

Q: And the koff?
A: Its koff is 0.00788 s⁻¹.

Q: And the kon?
A: Its kon is 2.73e+07 M⁻¹ s⁻¹.

Q: What does the source list for B2?
A: Kd: 0.349 nM; koff: 0.00341 s⁻¹; kon: 9.76e+06 M⁻¹ s⁻¹

Q: With B3 as the molecule, how does the Kd read?
A: The Kd was 0.0839 nM.

Target: recombinant human BCMA-his protein (Acro biosystems, Cat #BCA-H522Y) (human) (UniProt Q02223)
Assay: competitive ELISA: coated human BCMA-his, blocked ligand biotin-labeled BAFF-Fc

Q: B1 was tested. Which IC50 did it give?
A: Its IC50 is 10.2 nM.

Q: Which IC50 does the source give for B2 here?
A: Its IC50 is 7.05 nM.

Target: human BCMA on U266 cells (human) (UniProt Q02223)
Assay: cell-based or functional assay

Q: With “isotype control antibody (as isotype control-DT3C conjugate)” as the molecule, how does the Max inhibition on cell viability (%), antibody-DT3C conjugate on U266 cells read?
A: Its Max inhibition on cell viability (%), antibody-DT3C conjugate on U266 cells is 17.8%.

Target: recombinant human BCMA-his protein (Acro biosystems, Cat #BCA-H522Y) (human) (UniProt Q02223)
Assay: competitive ELISA: antibody pre-mixed with biotin-labeled human BCMA-his, competitor coated BCMA BM1

Q: B1 was tested. Which IC50 did it give?
A: The IC50 was 1.51 nM.

Q: How did the IC50 turn out when B2 was run?
A: Its IC50 is 1.45 nM.

Target: recombinant human BCMA-his protein (Acro biosystems, Cat #BCA-H522Y) (human) (UniProt Q02223)
Assay: BLI Octet RED96, antibody on AHC sensor, BCMA-his in solution

Q: For B1, which Kd is on record?
A: Its Kd is 2.02 nM.

Q: And the koff?
A: Its koff is 0.000733 s⁻¹.

Q: What about the kon of the same molecule?
A: The kon was 363000 M⁻¹ s⁻¹.

Q: What does the source list for B4?
A: Kd: 6.06 nM; koff: 0.00137 s⁻¹; kon: 226000 M⁻¹ s⁻¹

Q: Which results are given for B5?
A: Kd: 0.915 nM; koff: 0.000372 s⁻¹; kon: 407000 M⁻¹ s⁻¹

Q: Which results are given for B6?
A: Kd: 5.14 nM; koff: 0.00137 s⁻¹; kon: 266000 M⁻¹ s⁻¹

Q: B7 was tested. Which Kd did it give?
A: The Kd was 1.22 nM.

Q: And the koff?
A: The koff was 0.000498 s⁻¹.

Q: What about the kon of the same molecule?
A: The kon was 407000 M⁻¹ s⁻¹.

Q: Which Kd does the source give for B8 here?
A: The Kd was 1.29 nM.

Q: What about the koff of the same molecule?
A: Its koff is 0.000742 s⁻¹.

Q: What about the kon of the same molecule?
A: The kon was 573000 M⁻¹ s⁻¹.

Q: What does the source list for B9?
A: Kd: 3.77 nM; koff: 0.000862 s⁻¹; kon: 229000 M⁻¹ s⁻¹

Q: What does the source list for B10?
A: Kd: 20.4 nM; koff: 0.00214 s⁻¹; kon: 105000 M⁻¹ s⁻¹

Q: Which Kd does the source give for B11 here?
A: Its Kd is 6.1 nM.

Q: And the koff?
A: The koff was 0.001 s⁻¹.

Q: What about the kon of the same molecule?
A: The kon was 164000 M⁻¹ s⁻¹.

Q: For B12, which Kd is on record?
A: The Kd was 1.12 nM.

Q: And the koff?
A: The koff was 0.00044 s⁻¹.

Q: What about the kon of the same molecule?
A: Its kon is 392000 M⁻¹ s⁻¹.

Q: For B13, which Kd is on record?
A: The Kd was 3.5 nM.

Q: And the koff?
A: Its koff is 0.000887 s⁻¹.

Q: What about the kon of the same molecule?
A: Its kon is 254000 M⁻¹ s⁻¹.

Q: Which Kd does the source give for B14 here?
A: The Kd was 0.269 nM.

Q: What about the koff of the same molecule?
A: The koff was 0.00029 s⁻¹.

Q: What about the kon of the same molecule?
A: The kon was 1.08e+06 M⁻¹ s⁻¹.

Q: B15 was tested. Which Kd did it give?
A: Its Kd is 9.16 nM.

Q: What about the koff of the same molecule?
A: Its koff is 0.00238 s⁻¹.

Q: And the kon?
A: Its kon is 260000 M⁻¹ s⁻¹.

Q: B16 was tested. Which Kd did it give?
A: Its Kd is 7.12 nM.

Q: And the koff?
A: Its koff is 0.00142 s⁻¹.

Q: And the kon?
A: Its kon is 199000 M⁻¹ s⁻¹.

Q: Which results are given for B17?
A: Kd: 2.22 nM; koff: 0.000921 s⁻¹; kon: 415000 M⁻¹ s⁻¹

Q: What does the source list for B18?
A: Kd: 2.65 nM; koff: 0.000647 s⁻¹; kon: 244000 M⁻¹ s⁻¹

Q: How did the Kd turn out when B19 was run?
A: The Kd was 6 nM.

Q: What about the koff of the same molecule?
A: The koff was 0.00141 s⁻¹.

Q: And the kon?
A: Its kon is 234000 M⁻¹ s⁻¹.

Q: What does the source list for B20?
A: Kd: 2.21 nM; koff: 0.000688 s⁻¹; kon: 312000 M⁻¹ s⁻¹

Q: What does the source list for B21?
A: Kd: 0.731 nM; koff: 0.000402 s⁻¹; kon: 550000 M⁻¹ s⁻¹

Q: With B2 as the molecule, how does the Kd read?
A: Its Kd is 0.349 nM.

Q: What about the koff of the same molecule?
A: Its koff is 0.00341 s⁻¹.

Q: What about the kon of the same molecule?
A: Its kon is 9.76e+06 M⁻¹ s⁻¹.

Q: Which Kd does the source give for B3 here?
A: Its Kd is 0.673 nM.

Target: recombinant human BCMA-his protein (Acro biosystems, Cat #BCA-H522Y) (human) (UniProt Q02223)
Assay: capture ELISA: antibody captured on the plate, biotin-labeled human BCMA-his detected with streptavidin-HRP

Q: Which EC50 does the source give for B1 here?
A: The EC50 was 0.47 nM.

Q: How did the EC50 turn out when B2 was run?
A: The EC50 was 0.439 nM.

Q: With B3 as the molecule, how does the EC50 read?
A: The EC50 was 0.226 nM.

Target: T1, cynomolgus BCMA-his protein (Acro biosystems, Cat #BCA-052H7) (cynomolgus monkey, UniProt A0A2K5UD97 1-53)
T1 construct: Bought; also called cynomolgus monkey BCMA protein; not shown: his tag
T1 sequence (A0A2K5UD97 entry or part of it): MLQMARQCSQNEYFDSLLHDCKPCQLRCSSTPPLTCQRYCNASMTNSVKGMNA
Assay: indirect ELISA on coated cynomolgus BCMA-his

Q: Which EC50 does the source give for B1 here?
A: Its EC50 is about 25400 nM.

Q: How did the EC50 turn out when B22 was run?
A: The EC50 was 0.186 nM.

Q: For B2, which EC50 is on record?
A: The EC50 was about 176 nM.

Q: With B3 as the molecule, how does the EC50 read?
A: The EC50 was 190 nM.

Target: T2, human BCMA on U266 cells (human, UniProt Q02223 1-184)
T2 sequence (looked up): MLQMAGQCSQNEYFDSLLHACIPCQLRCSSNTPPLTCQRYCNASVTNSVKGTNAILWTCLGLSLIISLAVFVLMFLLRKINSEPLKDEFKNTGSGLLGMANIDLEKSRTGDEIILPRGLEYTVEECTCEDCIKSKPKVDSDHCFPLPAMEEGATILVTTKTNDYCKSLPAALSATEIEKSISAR
Assay: cell-based or functional assay

Q: For B1, which “IC50 (nM), cell killing activity of antibody-DT3C conjugate on U266 cells (internalization assay)” value is on record?
A: Its value is 0.19 nM.

Q: What about the “Max inhibition on cell viability (%), antibody-DT3C conjugate on U266 cells” value of the same molecule?
A: The value was 99.7%.

Q: What does the source list for B22?
A: IC50 (nM), cell killing activity of antibody-DT3C conjugate on U266 cells (internalization assay): 1.55 nM; Max inhibition on cell viability (%), antibody-DT3C conjugate on U266 cells: 97%

Q: What does the source list for B2?
A: IC50 (nM), cell killing activity of antibody-DT3C conjugate on U266 cells (internalization assay): 0.14 nM; Max inhibition on cell viability (%), antibody-DT3C conjugate on U266 cells: 99.9%

Target: T2, human BCMA on U266 cells
Assay: cell based binding FACS on U266 cells, MFI

Q: B22 was tested. Which EC50 did it give?
A: The EC50 was 17.7 nM.

Target: T3, human BCMA on 293F-BCMA cells (human, UniProt Q02223 1-184)
T3 construct: Stably expressed on 293F cells prepared in house; also called 293F cells expressing human BCMA; Full length human BCMA
T3 sequence: T2 sequence (looked up)
Assay: cell based binding FACS on 293F cells expressing human BCMA, MFI

Q: For B1, which EC50 is on record?
A: The EC50 was 1.2 nM.

Q: B22 was tested. Which EC50 did it give?
A: The EC50 was 8.86 nM.

Q: How did the EC50 turn out when B2 was run?
A: Its EC50 is 0.865 nM.

Q: Which EC50 does the source give for B3 here?
A: Its EC50 is 0.953 nM.
